System: Normal Human Epidermal Keratinocytes (NHEK)
Experiment: Lipid accumulation fluorescence assay (AdipoRed) on NHEK total lipids
Assay type: cell-based
Details: 10 μg/ml, positive control
Procedure: Lipid accumulation using a fluorescence assay was then assessed. In particular, following the results of the transcriptomic analysis, NHEK were treated for 6 days with conditioned media at concentrations of 0.1, 0.5, 1, and 2%. Adiponectin 10 μg/ml (Sigma, St Quentin Fallavier, France), known in the literature to induce lipid production in cell cultures, was used as positive control. To quantify and visualize total lipids after the 6 days of treatment, cells were treated with AdipoRed™ Assay Reagent (Lonza, Verviers, Belgium) a lipophilic reagent which fluoresces (excitation: 485 nm, emission: 572 nm). The intensity of the fluorescence is proportional to the lipid concentration and can be measured using a spectrophotometer (Envision, Perlin Elmer, Villebon-sur-Yvette, France). Images were acquired using a fluorescence microscope (Axio imager, ZEISS, Rueil Malmaison France) with magnification ×20.
Adiponectin induced an increase in fluorescence signal after 6 days of treatment (+25%) which validated the test. […] This experiment was repeated increasing the concentration of the conditioned media to 5% and 10% and reducing the time of treatment to 1 day. Non-conditioned media at 5% and 10% were also tested as negative controls and Adiponectin (10 μg/ml) as positive control.

B1: Adiponectin (protein, UniProt Q15848 19-244, looked up)
Adiponectin: ETTTQGPGVLLPLPKGACTGWMAGIPGHPGHNGAPGRDGRDGTPGEKGEKGDPGLIGPKGDIGETGVPGAEGPRGFPGIQGRKGEPGEGAYVYRSAFSVGLETYVTIPNMPIRFTKIFYNQQNHYDGSTGKFHCNIPGLYYFAYHITVYMKDVKVSLFKKDKAMLFTYDQYQENNVDQASGSVLLHLEVGDQVWLQVYGEGERNGLYADNDNDSTFTGFLLYHDTN
notes: known in the literature to induce lipid production in cell cultures; positive control (Sigma)
- increase in fluorescence (total lipids) (1 day of treatment): 250%
- increase in fluorescence signal (total lipids) (6 days of treatment): +25%
